Molecular target: BCL-XL (UniProt Q07817)
Assay: SPR

UniProt Q07817, sequence (Q07817 whole entry): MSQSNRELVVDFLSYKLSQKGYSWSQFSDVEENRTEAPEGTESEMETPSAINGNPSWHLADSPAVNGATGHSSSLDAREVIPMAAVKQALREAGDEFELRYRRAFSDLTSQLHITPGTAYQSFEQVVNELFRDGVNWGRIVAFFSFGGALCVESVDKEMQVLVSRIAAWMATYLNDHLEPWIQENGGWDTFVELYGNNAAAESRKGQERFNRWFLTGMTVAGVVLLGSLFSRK

fold higher affinity than BIMS2A BH3 for MCL-1: 20 fold
Binder: NLWAAQRYGRELRRMSDEFVDSFKKG [BADS BH3 peptide]

— article PMC3894413
